Source: the nanobody polyreactivity screen of Harvey et al. (2022)

experiment: yeast display, Sf9 membrane polyspecificity reagent, FACS + sequencing; frameworks hold sequencing errors
Summary of the method: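 Nanobodies came from a synthetic yeast display library in Saccharomyces cerevisiae BJ5465, induced with galactose for 36–48 hours and stained for 1 hour at 4 °C with 10% biotinylated, detergent-solubilized Sf9 membrane reagent. Cells were enriched on streptavidin microbeads and then FACS-sorted, with low and high (top ~1%) gates set on anti-HA fluorescence for expression and streptavidin fluorescence for reagent binding. Each polyreactivity label reflects the gate a clone came from. Genes were amplified by colony PCR, sequenced by MiSeq 2 × 250 and filtered by CDR length.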

**Q.** Which “polyreactivity (PSR sort gate)” value does the source give for “QVHLVDSGGGLFQAGGILRLSCAASGRTIATNAMGWYRQAPGKERELVAGISWRVGRTYYADSVKGRFTISRDNAKNSVYLQMFSLKPEDTAVYYCAANPVRSRYGYWGQGTQVTVSS” here?
**A.** Its value is “high polyreactivity”.

**Q.** With “QVQLVESGGGLVQAGCSLRLSCAASGSIFRYYAMGWYRQAPGKERELVAAITSSGGSTYYADSVKGRFTISRDNSKNTVYLQMNSLKPEDTAVYYCNARHVRYSRRENDYWGQGTQVTVSS” as the sequence, how does the “polyreactivity (PSR sort gate)” value read?
**A.** Its value is “high polyreactivity”.

**Q.** For “QVQLVESGGGLVQAGGSHRLSCAASGRTFSPNAMGWYRQAPGKERELVAAISYRSYRTYYADSVKGRFTISRDKAKNTVYLQMNSLKPEDTAVYYCNADRTRGFQRYDYWGQGTQVTVSS”, which “polyreactivity (PSR sort gate)” value is on record?
**A.** The value was “high polyreactivity”.

**Q.** For “QVQLVESGGGLVQAGGSLRLSCAASGSIFYSYAMGWYRQAPGKEREFVAAISQLGGSTYYADSVKGRFTISRDNAKNTVYLQMNSLKPEDTAVYSCNAVYRRAQFLYGYDYWGQGTQVTVSS”, which “polyreactivity (PSR sort gate)” value is on record?
**A.** The value was “high polyreactivity”.

**Q.** With “QVQLVESGGGVVQAGGSLRLSCAASGLTFKFYAMGWYIQAPGKERELVAAINRSGSSTYYADSVKGRFTISRDNAKNTVYLQMNSLKPEDTAVYYCAKDSFTSTRQYDYWGQGTQVTVSS” as the sequence, how does the “polyreactivity (PSR sort gate)” value read?
**A.** The value was “low polyreactivity”.

**Q.** With “QVQLVESGGGLVQAGGSLRLSCAASGGIFKYNAMGWYRQAPGKERELVAAIDTSGGSTYYADSVKGRFTISRDNAKNTVYLQMNSLKPEDTAVYYCARRWSYQRPSFEYDSWGQGTQVTVSS” as the sequence, how does the “polyreactivity (PSR sort gate)” value read?
**A.** The value was “low polyreactivity”.

**Q.** With “QVQLVESGGVLVQAGGSLRLTCAASGSNFVTNAMGWYRQAPGKERELVAAISVSGGSTYYADSVKGRFTISRDNAKNTVYLQMNSLKPEDTAVYYCNTVRSPAGHDYWGQGTQVTVSS” as the sequence, how does the “polyreactivity (PSR sort gate)” value read?
**A.** Its value is “low polyreactivity”.

**Q.** For “QVQLVESGGGLIQAGGSLRLSCAASGSTFANNAMGWYRPAPGKERELVAAISYNGGSTYYADSVKGRFTISRDNAKNTVYLQMNSLKPEDTAVYYCAAYHFRAPSEYDYWGQGTQVTVSS”, which “polyreactivity (PSR sort gate)” value is on record?
**A.** The value was “low polyreactivity”.

**Q.** With “QVQLVESGGGLVQAGGSLRLSCAGSGFTLGSNAMGWYRQAPGKERELVAVISGSGGSTYYADSVKGRFTISRDNAKNTVYLQMNSLKPEDTAVYYCAAQYSAGQYYGYGYWGQGTQVTVSS” as the sequence, how does the “polyreactivity (PSR sort gate)” value read?
**A.** The value was “high polyreactivity”.

**Q.** For “QVQLVESGGGLVQAGGSLRLSCAASGRIFSVYAMGWYRQAPGKERELVAAITRVGSTNYADSVKGRFTISRDNAKNTVYLQMNSLKPEDTAVYYCAAVARTVPSYSYNYWGQGTQVTVSS”, which “polyreactivity (PSR sort gate)” value is on record?
**A.** The value was “high polyreactivity”.

**Q.** For “QVQLVESGGGLVQAGGSLRLSCAASGSIFQYYAMGWYRQAPGKERELVAAISSAGSTKYADSVKGRFTISRDNAKNTVYLQMNSLKPEDTAVYYCAARDPSRHARRAYDYWGQGTQVTVSS”, which “polyreactivity (PSR sort gate)” value is on record?
**A.** Its value is “low polyreactivity”.

**Q.** For “QVQLVESGGGLVQAGGSLRLSCAASGRTFYKNTMGWYRQAPGKERELVATITRRGGTTYYADSVKGRFTISRDKAKNTVYLQMNSLKPEDTAVYYCAKDASTEKYDYWGQGTQVTVSS”, which “polyreactivity (PSR sort gate)” value is on record?
**A.** The value was “low polyreactivity”.

**Q.** For “QVQLVESGGGLDQAGGSLRLSCDASGRIFGYYAMGWYRQAPGKERELVAAITWTGGGTYYADSVKGRFTISRDNAKNTVYIQMNSLKPEDTAVYYCAADPDSGQFPFDYWGQGTQVTVSS”, which “polyreactivity (PSR sort gate)” value is on record?
**A.** Its value is “low polyreactivity”.

**Q.** With “QVQLVESGGGLVQAGGSLRLSCASSVIILVQYVMGWYIQAPGKERELVASISRTGGSTNYADSVKGRFTISRDNAKNTVYLQMNSLKPEDTAVYYCSAKKRKIAGVGGDYWGQGTQVTVSS” as the sequence, how does the “polyreactivity (PSR sort gate)” value read?
**A.** Its value is “high polyreactivity”.

**Q.** Which “polyreactivity (PSR sort gate)” value does the source give for “QVQLVESGGGLVQAGGSLRLSCAASGSTLIDYTMGWYRQAPGKERELVAAISSGGSTNYADSVKGRFTISRDNAKNTVYLQMNSLKPEDTAVYYCAKDHQRYFYGFWEHPRYDYWGQGTQVTVSS” here?
**A.** The value was “high polyreactivity”.

**Q.** With “QVQLVESGGGLVQAGGSLRLICAASGSIFRNNARGWYRQAAGKERELVAVISRRSGNTYYADSVKGRFTISRDNAKNTVYLQMNSLKPEDTAVYYCAADYSKSSIRGDYWGQGTQVTVSS” as the sequence, how does the “polyreactivity (PSR sort gate)” value read?
**A.** Its value is “low polyreactivity”.

**Q.** For “QVQLVESGGGLVQAGGSLRLSCAASGSIFRYYAMGWYRQAPGKERELVAAISSRGGTTHYADSVKGRFTISRDNAKNTVYLQMNSLKPEDTAVYYCAADYYLATNPAPLAAGRGYWGQGTQVTVSS”, which “polyreactivity (PSR sort gate)” value is on record?
**A.** The value was “high polyreactivity”.

**Q.** Which “polyreactivity (PSR sort gate)” value does the source give for “QFQLVESCRGLVQAGGSLRLSCAASGFTFRANGMGWYRQAPGKERELVATITSGGTTNYADSVKGRFTISRDNAKNTVYLQMNSLKREDTAVYYCAKRFGPAYFRLYDYWGQGTQVTVSS” here?
**A.** Its value is “low polyreactivity”.

**Q.** For “QVQLVESGGGLVQAGGSLRLSCAASGFIFFEYAMGWYRQAPGKERELVAAISWSDDTTYYADSVKGRFTISRDNAKNTVYLQMNSLKPEDTAVYYCAAEKVSGQGEMDYWGQGTQVTVSS”, which “polyreactivity (PSR sort gate)” value is on record?
**A.** The value was “low polyreactivity”.

**Q.** Which “polyreactivity (PSR sort gate)” value does the source give for “QVQLVESGGGLVQAGGSLRLSCAASGLIFGGNAMGWYRQAPGKERELVAAISRTGGRTYYADSVKGRFTISRDNAKNTVYLQMNSLKPDDTAVYFCAAAAQRPEGYYWGQGTQVTVSS” here?
**A.** Its value is “high polyreactivity”.

**Q.** Which “polyreactivity (PSR sort gate)” value does the source give for “QVQLVESGGGLVQAGGSLRLSCAASGFIFRYYAMGWYRQAPGKERELVAAISGNGGNTYYADSVKGRFTISRDNAKNTVYLQMNSLKPEDTAVYNCNRAPGYRGGRYDYWGQGTQVTVSS” here?
**A.** The value was “high polyreactivity”.

**Q.** Which “polyreactivity (PSR sort gate)” value does the source give for “QVQLVESGGGLVQAGGSLRLSCAASGRTFYYYAMAWYRPAPGKERELVAAISWSGGRTYYADSVKGRFTISRDNAKNTVYLLMNSLIPVDTAVYYCNAEPPRGYTVSSGGEMDYWGQGTQVTVSS” here?
**A.** The value was “low polyreactivity”.

**Q.** For “QVQLVESGGGLVHAGCSLRLSCSASGRISGYAMGWYRQAPGKERELVAAISKSAARTYYADSVKGRFTISRDNAKNTVYLQMNSLKAEDTAVYYCAADKPYRYDYWGQGTQVTVSS”, which “polyreactivity (PSR sort gate)” value is on record?
**A.** The value was “high polyreactivity”.

**Q.** With “QVQLVESGGGLVQAGGSLRFSCAASGRTFNQNAMGWYRQAPGKERELVAAITSRGGSTFYADSVKGRFTISRDNAKNTVYLQMNSLKPEDTAVYYCNAKSWRYYTMGYWGQGTQVTVSS” as the sequence, how does the “polyreactivity (PSR sort gate)” value read?
**A.** Its value is “high polyreactivity”.

**Q.** For “QVQLVESGGGLVQAGGSLRLSCDASGFIFDEYAMGWYRPAPGEERELVAAINWRGGSTYYADSVKGRFTISRDNAKNTVYLQMNSLKPEDTAVYYCAARNVYVWYDYWGQGTQVTVSS”, which “polyreactivity (PSR sort gate)” value is on record?
**A.** The value was “low polyreactivity”.

**Q.** With “QVQLVESGGGLVQEGGSLRLSCAASGSTFAYNAKGWYRQAPGKERELVARISSSGDITYDADSVKGRFTISRDNAKNTVYLQMNSLKPEDTAVYYCAKRYLTRYKGYYYWGQGTQVTVSS” as the sequence, how does the “polyreactivity (PSR sort gate)” value read?
**A.** The value was “high polyreactivity”.

**Q.** Which “polyreactivity (PSR sort gate)” value does the source give for “QVQLVESGGALDQAGGSLRLSCAASGSTFISNAMGWYRQAPGKERELVAAISSGGGRTSYADSVKGRFTISRDNANNTVYLQMNSLKPEDTAVYYCNTKKLPYAEGYWGQGTQVTVSS” here?
**A.** Its value is “low polyreactivity”.

**Q.** With “QVQLVESGGGLVQAGGSLRLSCAASAFIIHRYAMGWYRQAPGKERELVAVITSGGGSTYYADSVKGRFTISRDNAKNTVYLQMNCLKAEDTAVYYCAAFQPDNSRYRYDYWGQGTQVTVSS” as the sequence, how does the “polyreactivity (PSR sort gate)” value read?
**A.** The value was “high polyreactivity”.

**Q.** Which “polyreactivity (PSR sort gate)” value does the source give for “QVQLVESGVGLVQAGGSLRLSCAASGSTIQYYAQGRYRQAPGKEREFVAAISISGGSTYYADSLKGRFTISRDNAKNTVYLQMNSLIPEDSEVYYCAARKKEYKPGKYWGQGTQVTVSS” here?
**A.** The value was “low polyreactivity”.

**Q.** With “QVQLVESGGGLVQAGGSLRLSCAASGSTFSKKAMGWYRQAPGKERELVAAITGRGGNTYYADSVKGRFTLSRDNAKNTVYLQMNSLKPEDTAVYYCAASWATYWFYRKAYNYWGQGTQVTVSS” as the sequence, how does the “polyreactivity (PSR sort gate)” value read?
**A.** The value was “high polyreactivity”.
